Measurements published in the supplement of paper PMC9170038.

System: K4 kissing-loop RNA reporter
Assay: apparent KD of K4 kissing-loop reporter; higher = weaker reporter binding
Settings: Eterna round: R107
Method: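 RNA-MaP round R107: designed RNA switches with theophylline, tryptophan, arginine or FMN aptamers are transcribed on-chip within common flanks. They are titrated with a labelled K4 kissing-loop RNA reporter in RNA-MaP buffer (100 mM Tris pH 7.5, 80 mM KCl, 4 mM MgCl2), without ligand or with the indicated ligand. Median apparent KD per design.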

[1] = input ligand: theophylline 20 uM
[2] = input ligand: tryptophan 2.4 mM
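Also: bound reporter read as fluorescence of individual clusters on recovered sequencing chips by microscopy, with normalized cluster intensities fitted with a binding model.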

Sequence | apparent KD of K4 kissing-loop reporter (input ligand: FMN 200 uM) | apparent KD of K4 kissing-loop reporter (input ligand: arginine 13.2 mM) | apparent KD of K4 kissing-loop reporter (input ligand: none) | apparent KD of K4 kissing-loop reporter [1] | apparent KD of K4 kissing-loop reporter [2]
CCAUUCUGUUACGAUACCAGUCUAAUAUAUUUGAUCAAUACCCUCGCCGAGUGAUGUUCGGACCCUUGGCAGCGUCUGGGACAGG [bbybmullin] | 453 nM | 377 nM | 410 nM | 440 nM | 364 nM
AGAACUGUCUGAGAUACCAGCCAGGAAGUGAUGUUUCCAGCUCCACGAAAGUGGAGCCAUGGCCCUUGGCAGCUCAGACAGUUCA [Omei KL Theo B SS A v5] | 150 nM | 141 nM | 147 nM | 105 nM | 154 nM
CCAUUCAUUUACGAUACCAGUCUAAUAUAUUUAAUCAAAACCCUCGCCGAGUGAUGUUCGGACCCUUGGCAGCGUCUGCGAGAGG [oookmullin] | 596 nM | 464 nM | 598 nM | 535 nM | 452 nM
GGCAGUGAUGUUGCCAGUGGCAGAUGCGAAGGAGCGUGGUGAGACACAGGUAGGUCGCGCAUUGAAAUUGCUGUCACUAAAAUGC [#3] | 338 nM | 346 nM | 326 nM | 369 nM | 261 nM
AUUUUGUUGUCAGGAUAUUAGUAUGGUUUUGGUUUGUUAGUGAUGUUGAUGUUUUGUUUAUGUAUUUAAGAAGGGAUUUAGCGGU [aqaawgumullin] | 474 nM | 352 nM | 400 nM | 401 nM | 343 nM
GGAUAGGAUAGAGGAUAUGGAGAACACAAAAGUGACUUGUUGUGUUUAUCCAUAGGGAGUGAUGUUCCAGAAGGCUGUCCUAUCG [MatMod 24 - Jieux - Exclusion - FMN B] | 296 nM | 178 nM | 201 nM | 183 nM | 156 nM
AGGGCACUGGCGGCCGCCACUUUUCGUGCGAACCAAAGCUAGUGAUGUUGGCUCCCUAGUUGCAAAAGGACCGGGCCGUUCAUCU [theeternabot_sameState_KL_Trp_B_37] | 315 nM | 195 nM | 302 nM | 296 nM | 211 nM
GGAGGAGAAUAUGAUACCAGCAGAGAGAGAGAGGAAGUAUAGUGAUGUUAUAUGUGAGAAUGCCCUUGGCAGCAUAAGAAGAAGG [whbob_SS_Theo_B_sa87] | 140 nM | 147 nM | 156 nM | 170 nM | 132 nM
GCGGACAUUCGCAGUGAUGUUGCGACGGAAGGAGCGGAUGAAAAUCCAGGUAGGUCGCCGACAAAAUUAAUUUUAAUGUGUUCGC [#03 K4 Arginine A Same State] | 358 nM | 325 nM | 437 nM | 316 nM | 324 nM
CGCGCCCAGCCGGAUACCAGUGACCCGCUGGGAACCGCGGGCCCAGAGUGAUGUUCGGGACACCCUUGGCAGCCGCCUGGGCGAC [#2 Same State - Theophylline B Attempt #8 (HarryS)] | 993 nM | 378 nM | 1130 nM | 525 nM | 509 nM
ACAGUCGGCUGUGAUACCAGUCGUAUUACAACAUGUUGCAGUGAUGUUGCGAGAUAGGAUGACCCUUGGCAGCACUCAGUACGAU [Same State Theophylline B GF9] | 310 nM | 99.7 nM | 173 nM | 179 nM | 144 nM
UGAUAGGACAGAAGGAGCGGUAGUGAUGUUGCCAAAAGUAUAAGGUGUCAAAAGACACCCUACCAGGUAGGUCGCUGUCCUAUCU | 319 nM | 346 nM | 354 nM | 541 nM | 340 nM
UGACUGGAUGGAAGGAGCGCUAAACUCCUAGUGAUGUUAGGGAAAUGAGGCAAAGCCUCGAGGCAGGUAGGUCGCCAUCUAGUCU [FiskerMod 18 - Jieux - Same State - Arginine B] | 160 nM | 121 nM | 155 nM | 148 nM | 144 nM
AGCAAUAUCACGGCCGCCACUGAAUAUUGUUUUUAUAUUUAGAAAUCUUGCCAGUGAUGUUGGUUCAGGACCGGGUGAGUUAAUA [JR_SSTryptoB_Sub005] | 435 nM | 430 nM | 466 nM | 450 nM | 401 nM
CGCUUGGGUGCGGCCGCCACUAGAGCGUGACACGGGUCCCAAAAGGGUGCAGUGAUGUUGCAGCCUAGGACCGGGCACCUCUGGC [Beveesbe] | 107 nM | 83 nM | 90.4 nM | 70.1 nM | 167 nM
CGGAGUGAUGUUCCUUUUAUUAAUUAUUAACGAGGACCGGUACGGCCGCCACUCGAUUUAGCUUUUAUUUAAUGCUUGGAUGUUU [JR_SSTryptoA_Sub003] | 132 nM | 224 nM | 157 nM | 246 nM | 77 nM
AAAGAUGCGUCGGCCGCCACUGUGAUCUACGAAAGUAGUAUGUAGAUGCAGUGAUGUUGCAUUUUCAGGACCGGGACGUAAGAUG [3rd] | 447 nM | 362 nM | 321 nM | 496 nM | 211 nM
UAUAGAAACGUCCUAUCAAUAAAAUGGGAAGGAGCGAGGAAGAACUCAGGUAGGUCGCCCAAUAACCUUAGUGAUGUUAAGGAAA [Version 1] | 126 nM | 112 nM | 137 nM | 156 nM | 117 nM
UGAUCUCGGCAGUGAUGUUGCAUAUGAGAAGGAGCGCACGAAAGUGCAGGUAGGUCGCUCAGCCAAAGAAAAUAAAACGAGAUCU [#SwitchBubble #K4Early] | 93.4 nM | 121 nM | 101 nM | 124 nM | 82 nM
ACACUAUCGUCAUAGACGGUAGUGAAAUGUGAGGAUAUGAGUGAUGUUAGAAGGCACAAAGACUGUAUCGAAUAGAUACAGUCAA [FmnA 6 #K4BetweenAptamer #OpenEnded] | 558 nM | 96.5 nM | 139 nM | 127 nM | 120 nM
GGAUAGGACGGAGGAUAUGGUAGUGAUGUUACCAAACUGGUUAAACAUGUCAGAAAACUGGCAUGACCAGAAGGCUGUCCUAUCG [FmnBX 27 G10] | 112 nM | 65.2 nM | 73 nM | 67.5 nM | 76.6 nM
